Test results: US20190300590A1 (PROTAGONIST THERAPEUTICS, published 2019)
One block for each binder: values may come before it. Bridges are numbered along the chain shown (N, C = ends). Where no end group is shown, it is not given here. [ ]: non-standard residue; d: D form. 2Nal = N[C@@H](Cc1ccc2ccccc2c1)C(=O)O; AEF = NCCOc1ccc(C[C@H](N)C(=O)O)cc1; AllylGly = C=CC[C@H](N)C(=O)O; Pen = CC(C)(S)[C@H](N)C(=O)O; Thp = NC1(C(=O)O)CCOCC1; Abu = CC[C@H](N)C(=O)O; AEA = NCCOCC(=O)O; βAla = NCCC(=O)O

Experiments:
Rat IL-23R_huFC [1] = target: Rat IL-23R_huFC (rat); test: rat ELISA vs IL-23
[2] = target: T1, IL-23R on human cells (IL-23R-expressing DB cells; human NK cells) (human, UniProt Q5VWK5 24-629); test: cell-based or functional assay
T1 sequence (looked up): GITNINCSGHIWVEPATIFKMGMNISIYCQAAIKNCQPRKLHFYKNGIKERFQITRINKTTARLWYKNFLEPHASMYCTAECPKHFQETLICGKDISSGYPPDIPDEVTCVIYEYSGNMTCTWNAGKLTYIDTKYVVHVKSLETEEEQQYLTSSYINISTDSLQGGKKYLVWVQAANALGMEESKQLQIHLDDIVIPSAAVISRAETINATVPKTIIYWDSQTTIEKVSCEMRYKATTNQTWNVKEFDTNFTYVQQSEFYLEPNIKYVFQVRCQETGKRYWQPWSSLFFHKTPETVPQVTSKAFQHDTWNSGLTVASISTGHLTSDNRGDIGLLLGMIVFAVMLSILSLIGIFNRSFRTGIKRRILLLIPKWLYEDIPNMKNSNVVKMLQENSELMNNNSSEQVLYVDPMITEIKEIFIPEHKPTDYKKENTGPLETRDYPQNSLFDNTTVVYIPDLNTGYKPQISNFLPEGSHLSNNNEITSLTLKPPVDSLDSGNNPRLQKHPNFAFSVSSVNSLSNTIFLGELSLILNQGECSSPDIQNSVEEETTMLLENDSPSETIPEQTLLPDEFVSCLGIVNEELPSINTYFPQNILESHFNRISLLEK

IL23R_huFC [3] = target: T2, IL23R_huFC (human, UniProt Q5VWK5 24-353); test: human ELISA vs IL-23
T2 sequence (looked up): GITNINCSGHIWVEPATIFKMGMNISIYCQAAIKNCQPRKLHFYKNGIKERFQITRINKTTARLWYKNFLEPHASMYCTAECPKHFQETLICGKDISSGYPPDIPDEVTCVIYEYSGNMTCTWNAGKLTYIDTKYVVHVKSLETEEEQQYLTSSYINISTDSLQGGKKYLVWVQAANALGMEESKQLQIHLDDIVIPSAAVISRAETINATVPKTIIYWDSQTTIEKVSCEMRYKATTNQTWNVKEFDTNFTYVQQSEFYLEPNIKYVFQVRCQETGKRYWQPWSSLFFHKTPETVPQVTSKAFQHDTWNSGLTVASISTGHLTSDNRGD

IL23R_huFC [4] = target: T2, IL23R_huFC; test: human ELISA vs IL-23; remark: listed apart in the source
Rat IL-23R_huFC [5] = target: T3, Rat IL-23R_huFC (rat; human, UniProt F1LX96 39-369); test: rat IL-23R competitive ELISA
T3 sequence: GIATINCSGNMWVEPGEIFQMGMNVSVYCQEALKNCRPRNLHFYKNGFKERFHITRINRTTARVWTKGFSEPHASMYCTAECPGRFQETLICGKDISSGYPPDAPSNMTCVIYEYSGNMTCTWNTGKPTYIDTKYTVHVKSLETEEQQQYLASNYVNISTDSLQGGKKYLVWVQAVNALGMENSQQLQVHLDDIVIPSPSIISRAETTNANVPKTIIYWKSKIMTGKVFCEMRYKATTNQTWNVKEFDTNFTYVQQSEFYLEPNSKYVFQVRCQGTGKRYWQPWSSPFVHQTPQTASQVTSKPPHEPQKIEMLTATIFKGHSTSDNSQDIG

Rat IL-23R_huFC [6] = target: Rat IL-23R_huFC (rat); test: rat ELISA vs IL-23; remark: listed apart in the source
[7] = target: T1, IL-23R on human cells …; test: cell-based or functional assay; remark: listed apart in the source
IL23R_huFC [8] = target: T4, IL23R_huFC (human, UniProt Q5VWK5 24-353); test: IL23-IL23R competitive ELISA, IC50 grade
T4 sequence (looked up): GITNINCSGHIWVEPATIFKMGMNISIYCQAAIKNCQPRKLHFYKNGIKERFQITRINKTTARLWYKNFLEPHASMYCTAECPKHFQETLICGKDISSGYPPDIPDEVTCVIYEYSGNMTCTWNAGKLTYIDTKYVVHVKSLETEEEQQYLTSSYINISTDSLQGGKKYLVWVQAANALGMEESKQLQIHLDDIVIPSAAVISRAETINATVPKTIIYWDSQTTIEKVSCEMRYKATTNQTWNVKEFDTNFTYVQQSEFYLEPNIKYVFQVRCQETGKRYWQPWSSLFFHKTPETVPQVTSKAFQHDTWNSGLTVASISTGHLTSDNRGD

IL23R_huFC [9] = target: T4, IL23R_huFC; test: IL23-IL23R competitive ELISA
IL23R_huFC [10] = target: T4, IL23R_huFC; test: IL23-IL23R competitive ELISA, IC50 grade; remark: listed apart in the source
Cyno IL-23R_huFC = target: T5, Cyno IL-23R_huFC (cyno, UniProt G7NWY5 24-353); test: IL-23/IL-23R competitive binding ELISA, cyno
T5 sequence: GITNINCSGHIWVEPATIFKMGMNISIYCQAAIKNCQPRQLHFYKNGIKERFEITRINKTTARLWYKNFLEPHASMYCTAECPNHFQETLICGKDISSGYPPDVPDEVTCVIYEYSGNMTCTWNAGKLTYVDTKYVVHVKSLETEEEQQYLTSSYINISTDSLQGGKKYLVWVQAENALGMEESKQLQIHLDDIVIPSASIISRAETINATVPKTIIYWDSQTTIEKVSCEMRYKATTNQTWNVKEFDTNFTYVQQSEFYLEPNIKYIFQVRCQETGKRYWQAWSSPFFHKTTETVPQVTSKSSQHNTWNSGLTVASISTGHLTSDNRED

Rat IL-23R_huFC [11] = target: Rat IL-23R_huFC (rat); test: IL-23/IL-23R competitive binding ELISA, rat
Rat IL-23R_huFC [12] = target: Rat IL-23R_huFC (rat); test: rat ELISA vs IL-23; remark: listed apart in the source
[13] = target: T6, Recombinant human IL-23R_huFC (RnD) (human, UniProt Q5VWK5 24-353); test: IL-23/IL-23R competitive binding ELISA, human
T6 sequence (looked up): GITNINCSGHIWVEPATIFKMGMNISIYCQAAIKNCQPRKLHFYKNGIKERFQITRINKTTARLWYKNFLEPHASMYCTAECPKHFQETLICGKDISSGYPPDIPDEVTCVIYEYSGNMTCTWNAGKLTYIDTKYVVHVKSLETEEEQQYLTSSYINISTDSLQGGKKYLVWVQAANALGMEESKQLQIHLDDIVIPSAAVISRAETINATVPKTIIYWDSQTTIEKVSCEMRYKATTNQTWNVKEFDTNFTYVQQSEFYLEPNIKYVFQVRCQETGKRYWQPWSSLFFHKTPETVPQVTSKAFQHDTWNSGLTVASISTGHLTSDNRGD

IL23R_huFC [14] = target: T7, IL23R_huFC (human, UniProt Q5VWK5 24-353); test: IL23-IL23R competitive binding ELISA
T7 sequence (looked up): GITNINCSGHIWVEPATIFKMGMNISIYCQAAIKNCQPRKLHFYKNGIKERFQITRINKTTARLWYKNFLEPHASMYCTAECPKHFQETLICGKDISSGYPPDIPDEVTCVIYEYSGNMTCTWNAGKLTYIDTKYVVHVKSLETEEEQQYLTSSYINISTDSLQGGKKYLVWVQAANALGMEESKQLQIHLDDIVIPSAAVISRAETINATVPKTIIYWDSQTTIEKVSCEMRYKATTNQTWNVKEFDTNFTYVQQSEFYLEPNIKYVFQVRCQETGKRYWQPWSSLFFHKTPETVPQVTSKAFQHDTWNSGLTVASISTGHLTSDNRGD

IL-23R on DB cells = target: T8, IL-23R on DB cells (human, UniProt Q5VWK5 24-629); test: cell-based or functional assay
T8 sequence (looked up): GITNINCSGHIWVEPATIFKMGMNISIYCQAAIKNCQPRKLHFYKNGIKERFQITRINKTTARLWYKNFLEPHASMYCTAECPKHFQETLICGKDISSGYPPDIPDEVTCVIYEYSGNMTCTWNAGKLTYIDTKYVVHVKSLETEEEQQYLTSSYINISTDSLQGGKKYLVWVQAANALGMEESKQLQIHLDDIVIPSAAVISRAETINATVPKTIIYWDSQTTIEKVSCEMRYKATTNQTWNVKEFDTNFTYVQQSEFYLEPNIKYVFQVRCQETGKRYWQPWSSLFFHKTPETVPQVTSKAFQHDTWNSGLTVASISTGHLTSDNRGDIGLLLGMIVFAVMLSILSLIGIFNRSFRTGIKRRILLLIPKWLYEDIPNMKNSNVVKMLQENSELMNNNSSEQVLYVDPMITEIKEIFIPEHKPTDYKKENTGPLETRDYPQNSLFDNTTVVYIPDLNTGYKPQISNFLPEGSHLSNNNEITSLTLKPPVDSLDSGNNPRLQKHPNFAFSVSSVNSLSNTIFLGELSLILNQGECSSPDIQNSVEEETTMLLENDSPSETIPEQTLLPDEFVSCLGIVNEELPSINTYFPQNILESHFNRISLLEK

IC50 (Rat IL-23R_huFC [1]): 25 to 100 nM | pStat3 HTRF IC50 [2]: < 10 nM | IC50 (IL23R_huFC [3]): < 10 nM
B1: [Ac-[(D)Lys]-Cyclo-[[Abu]-QTWQC]-[Phe(4-OMe)]-[2-Nal]-[α-MeLeu]-ENG-NH2]2 DIG (peptide)
peptide: KXQTWQCFXLENG
modifications: not fully specified; as bracketed in name; thioether cyclo; DIG linker through (D)Lys

IC50 (IL23R_huFC [4]): ~20000 nM
Binder: [AllylGly]ADWV[AllylGly]YWHTFG (staple 1-6 (inferred)) [SEQ ID NO. 1000 peptide (drawing CHEM-US-00114)]

IC50 (Rat IL-23R_huFC [5]): 2210 nM
Binder: Ac-CQTWQCYW[βAla]VFG[AEA][dK]-NH2 (disulfide 1-6 (inferred)) [Ac-CQTWQCYW-[βAla]-VFG-[AEA]-[(D)Lys]-NH2]

IC50 (Rat IL-23R_huFC [6]): 10 to 25 nM | pStat3 HTRF IC50 [2]: < 10 nM | NK cell assay IC50 (IFNγ) [7]: < 25 nM | IC50 (IL23R_huFC [3]): < 10 nM
B2: [Ac-Cyclo-[[Abu]-QTWQC]-[Phe(4-OMe)]-[2-Nal]-[α-MeLys+-ENG-NH2]2DIG (peptide)
peptide: XQTWQCFXKENG
modifications: not fully specified; as bracketed in name; thioether cyclo; DIG linker through a-MeLys

IC50 (IL23R_huFC [8]): 1000 to 10000 nM
Binder: H-FPTWEWYWCNRD-NH2 (also: oxidized dimer via intermolecular Cys9-Cys9 disulfide) [(Hy-FPTWEWYWCNRD-NH2)2, oxidized dimer through the cysteine]

IC50 (IL23R_huFC [9]): 500 to 1000 nM | IC50 (IL23R_huFC [10]): 100 to 1000 nM
Binder: H-CADWVCYWHTFG-NH2 (disulfide 1-6 (inferred)) [Hy-CADWVCYWHTFG-NH2]

IC50 (Cyno IL-23R_huFC): 1.3 nM | IC50 (Rat IL-23R_huFC [11]): 3 nM
Binder: Ac-[Abu]QTWQC[AEF][2Nal][Thp]ENN-NH2 (thioether 1-6) [Peptide 980]

IC50 (Rat IL-23R_huFC [12]): 100 to 1000 nM
Binder: Ac-[Pen]RTWQCYWRKFG[AEA][dK]-NH2 (disulfide 1-6 (inferred)) [Ac-[Pen]-RTWQCYWRKFG-[AEA]-[(D)-Lys]-NH2]

IC50 [13]: 2 nM | IC50 (Cyno IL-23R_huFC): 2 nM | IC50 (Rat IL-23R_huFC [11]): 2 nM
B3: Peptide 993 (peptide)
peptide: RXQTWQCFXXENN
modifications: Ac-[(D)Arg]-Cyclo-[[Abu]-QTWQC]-[Phe[4-(2-aminoethoxy)]]-[2-Nal]-[4-amino-4-carboxy-tetrahydropyran]-ENN-NH2; cyclized by Abu-Cys thioether

IC50 (IL23R_huFC [14]): 10 to 25 nM | pStat3 HTRF IC50 (IL-23R on DB cells): 10 to 25 nM
B4: [Ac-[Pen]-QTWQ-[Pen]-[Phe[4-(2-aminoethoxy)]-[2-Nal]-[α-Me-Leu]-QNN-NH2]2DIG (peptide)
peptide: XQTWQXFXLQNN
modifications: Ac; Pen-Pen disulfide; Phe[4-(2-aminoethoxy)]; 2-Nal; α-Me-Leu; NH2; DIG linker joins the two subunits

IC50 (IL23R_huFC [14]): < 10 nM | pStat3 HTRF IC50 (IL-23R on DB cells): 10 to 25 nM
B5: [Ac-[Pen]-QTWQ-[Pen]-[Phe[4-(2-aminoethoxy)]-[2-Nal]-[α-Me-Leu]-QNN-NH2]2PEG25 (peptide)
peptide: XQTWQXFXLQNN
modifications: Ac; Pen-Pen disulfide; Phe[4-(2-aminoethoxy)]; 2-Nal; α-Me-Leu; NH2; PEG25 linker joins the two subunits
